Reference: article PMC12330381, “Evolutionarily diverse caveolins share a common structural framework built around amphipathic disks” (The Journal of Cell Biology, 2025)

B1: S. purpuratus caveolin (natural protein, Strongylocentrotus purpuratus, UniProt A0A7M7T4C2 1-159, looked up)
chain: MELIHPENGPSGTVQVPLIQGVDQSDTEDVYRLSPHVTTGFADTFKESNDIMGFSFMEKVNGAIYKYTHFAFYAVLNLLLAPFIAFSFGLSFAVMHFAVVWFVQPIMKLYYVWLRVFNLAYEPALRLVCDPIHRSIALILSGIKGQFKMNSSDVKTSQV
notes: caveolin of Strongylocentrotus purpuratus (purple sea urchin), UniProt A0A7M7T4C2, entire polypeptide (residues 1-159); residues 29-152 modelled in the cryo-EM map; Cloned between NdeI and XhoI of pET20b(+) with a reverse primer without stop codon, so the His tag is probably C-terminal (surmised); also called Strongylocentrotus purpuratus caveolin; Type I-CAV; source: E. coli BL21, purified from …

Tests used:
[1] = target: S. rosetta caveolin (Salpingoeca rosetta); assay: cryo-EM structure; single-particle cryo-EM of the complex purified in C12M detergent; C11 symmetry applied in the final refinement
[2] = target: the molecule itself; assay: as above

Molecule | stoichiometry N [1] | stoichiometry N [2]
S. rosetta caveolin (natural protein) | 11 | –
B1 | – | 11
